Source: PMC5686073, “Suppression of SRCAP chromatin remodelling complex and restriction of lymphoid lineage commitment by Pcid2” (Nature Communications, 2017)

Target: T1, His-PCID2 (PCI domain-containing protein 2) (mouse, UniProt Q8BFV2 1-399)
T1 construct: PCID2 (PCI domain-containing protein 2), mouse full-length Pcid2 subcloned into pETDuet; the plasmid section names only the mouse construct; also called His-tagged PCID2; recombinant PCID2 protein; source: E. coli, purified (Ni-NTA His-resins)
T1 sequence (Q8BFV2 whole entry, the tested form may be a part): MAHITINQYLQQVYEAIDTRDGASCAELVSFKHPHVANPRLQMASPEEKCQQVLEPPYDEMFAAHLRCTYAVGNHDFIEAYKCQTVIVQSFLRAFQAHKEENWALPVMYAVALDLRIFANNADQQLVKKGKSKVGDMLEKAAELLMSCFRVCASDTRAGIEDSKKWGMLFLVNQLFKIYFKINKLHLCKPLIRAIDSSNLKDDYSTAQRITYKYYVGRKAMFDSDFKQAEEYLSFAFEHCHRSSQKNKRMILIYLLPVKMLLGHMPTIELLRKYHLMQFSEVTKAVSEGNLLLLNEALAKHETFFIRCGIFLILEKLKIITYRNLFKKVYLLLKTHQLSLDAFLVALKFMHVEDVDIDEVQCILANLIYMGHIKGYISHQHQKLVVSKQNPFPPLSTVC
Assay: pull-down; GST-ZNHIT1 incubated with His-PCID2 protein, GST pulldown
Conditions: both partners purified

- binding result: binds
B1: GST-ZNHIT1 (Zinc finger HIT-type containing 1) (natural protein, mouse, UniProt Q8R331 1-154, looked up)
chain: MVEKKPAVRSQDPGQRRVLDRAARQRRINRQLEALENDNFQDDPHAGLPQLGKRLPQFDDDADTGKKKKKTRGDHFKLRFRKNFQALLEEQNLSASEGPNYLTACAGPPSRPQRPFCAVCGFPSPYTCVSCGARYCTVRCLGTHQETRCLKWTV
notes: ZNHIT1 (Zinc finger HIT-type containing 1, p18^hamlet), mouse Znhit1 cloned into pGEX-6P-1; Vector pGEX-6P-1; also called GST-tagged ZNHIT1; p18^hamlet; source: E. coli, purified (Glutathione Sepharose 4B)
